For test [1], the target named is T细胞表面PD-1 (human) (UniProt Q15116). The experiment in a line: flow cytometry, MNC co-cultured with DC, no BXOS antibody.
The target is the same in test [2]. In words: flow cytometry, MNC cultured alone 3 days, no BXOS antibody. (Flow cytometry measures light scatter and fluorescence of single cells or particles in a stream.)
Test [3] concerns the target 生物素化PD-1 (PD-1:PD-L1抑制剂筛选试剂盒, AcroBiosystems，EP-101) (UniProt Q15116). The experiment in a line: competition ELISA, PD-L1 coated, biotinylated PD-1; positive control antibody. (An ELISA detects its analyte on a solid surface through an enzyme-linked reagent.)
In test [4] the target is T1, 人PD-1重组蛋白(Acro Biosystems，PD-1-H5221) (human, UniProt Q15116 25-167).
T1 construct: Bought
In words: phage ELISA on coated human PD-1 recombinant protein.

T1 sequence (Q15116 25-167 limits assumed): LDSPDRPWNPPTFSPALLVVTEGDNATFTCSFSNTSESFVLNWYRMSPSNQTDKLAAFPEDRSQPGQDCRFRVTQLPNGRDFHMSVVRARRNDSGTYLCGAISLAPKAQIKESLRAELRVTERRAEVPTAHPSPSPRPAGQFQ

With 商品化的抗PD-1的流式抗体PD-1-PE(biolegend，329906), the PD-1表达量 (% of T cells stained by PD-1-PE) with T细胞表面PD-1 (human) [1] was 32.6 %; with T细胞表面PD-1 (human) [2], 26.2 %.

For the molecule “阳性对照αPD-1单克隆抗体:Anti-PD1mAb，Human(IgG4)Lot No.B52-63NS1-AS,ACRO Biosystems (antibody)”, the 阻断率 in test [3] is 70.7 %.

B1: scFv3 (scFv)
scFv: QVQLVQSGAEVKKPGSSVKVSCKASGGTFSSYAISWVRQAPGQGLEWMGRIIPILGIANYAQKFQGRVTITADKSTSTAYKELSSLRSEDTAVYYCAAPLPKNGVYPWGQGTLVTVSSGGGGSGGGGSGGGGSGGGGSEIVMTQSPATLSSSPGERVTLSCRASQSVTSHLAWYQQRPGQAPRLLIYDASKRATGIPARFSGSGSGTDFTLTISSLEPEDFATYYCLQDYRYPRTFGQGTKVEIKR
As to B1, the binding result in test [4] is recorded as “binds”.

B2: scFv2 (scFv)
scFv: QVQLVESGGGVVQPGKSLRLSCAASGFSFRNYDMHWVRQAPGRGLEWVAVTWYDGSNKYYADSVKGRFTISRDNSKNTVYLHINSLRAEDTAVYYCAKDQAHYYNYSTGHFSYYFDSWGQGTLVTVSGGGGSGGGGSGGGGSEIVLTQSPATLSLSPGQRATLSCRTSQTIRKHLAWYQQKPGQAPRLLVYDISSRATGIPARFSGSGSGTDFTLTISSLQPDDFATYYCQRYDTYPRTFGQGTKVEIKR
B2: the binding result in test [4] is “binds”.

B3: scFv4 (scFv)
scFv: QVQLVQSGGGLVKPGGSLRLSCVASGFTFSNSGMHWVRQAPGKGLEWVAVIWYDGSKRYYADSVKGRFTISRDNSKNTLFLQMNSLRAEDTAVYYCATNDDYWGQGTLVTVSSGGGGSGGGGSGGGGSEIVMTQSPATLSLSPGERATLSCRASQSVSSNLAWYQQKPGQAPRLLIYDASTRATGIPARFSGSGSGTDFTLTISSLQPEDFATYYCLQDYNYPRTFGQGTKLEIKR
Regarding B3, in test [4], the binding result is reported as “binds”.

B4: scFv1 (scFv)
scFv: QVQLVQSGGDLVKPGGSLRLSCATSGFTFSTYNMHWVRQAPGKGLEWVSSISRSSDYIYYADSVKGRFTMSRDNAKTSLYLQMNSLRADDTAVYYCARDSWIYDGSGYSSDAFDIWGQGTMVTVSGGGGSGGGGSGGGGSEIVLTQSPATLSLSPGERATLSCRASQSISSYLSWYQQKPGQAPRLLIYDASNRATGIPARFSGGGSGTDFTLTISSLEPEDFAVYYCQQRNSWPLTFGGGTKVEIKR
As to B4, in test [4], the binding result is reported as “binds”.

B5: scFv5 (scFv)
scFv: QVQLVESGGGVVQPGRSLRLDCKASGITFSNSGMHWVRQAPGKGLEWVAVIWYDGSKRYYADSVKGRFTISRDNSKNTLFLQMNSLRAEDTAVYYCATNDDYWGQGTLVTVSSGGGGSGGGGSGGGGSEIVMTQSPATLSLSPGERATLSCRASQSVSSSVSWYQQKLGQAPRLLIYDASNRATGIPARFSGSGSGTDFTLTISSLEPEDFAVYYCQQRSKWPLTFGAGTKVEIKR
Take B5: the binding result in test [4] is given as “binds”.

For the origin of these results see CN109467603A (BIOCELLS BEIJING BIOTECHNOLOGY CO LTD, dated 2019).
